This assay addresses cyXR, xanthorhodopsin from an Antarctic filamentous cyanobacterium (genus Pseudanabaena) (Pseudanabaena (Antarctic MAG, Dry Valleys)). In words: cryo-EM structure.

In the case of “cyXR, xanthorhodopsin from an Antarctic filamentous cyanobacterium (genus Pseudanabaena) (natural protein)”, the stoichiometry N – broadly, a count of units in the complex or per binding partner – is 5.

Values taken from doi:10.1101/2025.06.10.658827.
